Paper PMC11696893, “Enzymatic synthesis of reactive RNA probes containing squaramate-linked cytidine or adenosine for bioconjugations and cross-linking with lysine-containing peptides and proteins”

Key:
T7 RNA polymerase = T7 RNA polymerase (bacteriophage T7, UniProt P00573 1-883); conditions: label: radioactive
YFV NS5 = YFV NS5 (Yellow fever virus, UniProt P03314 2507-3411); assay: EMSA; conditions: protein: recombinant; label: radioactive
JEV NS5 = JEV NS5 (Japanese encephalitis virus, UniProt P27395 2528-3432); assay: EMSA; conditions: protein: recombinant; label: radioactive
[1] = target: SARS-CoV-2 nucleoprotein (SC_NP) (SARS-CoV-2, UniProt P0DTC9 1-419); assay: EMSA; conditions: protein: recombinant; chain copies: 2; label: radioactive
[2] = target: HIV reverse transcriptase (HIV-rt) (HIV, UniProt P04585;P04585 588-1147;588-1027); conditions: protein: recombinant; copies: 1;1; label: radioactive

**Q.** Does GAUACUAAGGGAAUAAAUUGAGAGAGAUAAAUUUAU (ssRNA, C5 = 5-(ethoxysquaramate-linked) cytidine (CESQ)) [36_vRNA_1gCESQ] bind (T7 RNA polymerase)?
**A.** no binding

**Q.** Does GAUACUAAGGGAAUAAAUUGAGAGAGAUAAAUUUAU (ssRNA, C5 = 5-(ethoxysquaramate-linked) cytidine (CESQ)) [36_vRNA_1gCESQ] bind (YFV NS5)?
**A.** binds

**Q.** Does GAUACUAAGGGAAUAAAUUGAGAGAGAUAAAUUUAU (ssRNA, C5 = 5-(ethoxysquaramate-linked) cytidine (CESQ)) [36_vRNA_1gCESQ] bind (JEV NS5)?
**A.** binds

**Q.** Does GAUACUAAGGGAAUAAAUUGAGAGAGAUAAAUUUAU (ssRNA, C5 = 5-(ethoxysquaramate-linked) cytidine (CESQ)) [36_vRNA_1gCESQ] bind [1]?
**A.** binds

**Q.** Does GAUACUAAGGGAAUAAAUUGAGAGAGAUAAAUUUAU (ssRNA, C5 = 5-(ethoxysquaramate-linked) cytidine (CESQ)) [36_vRNA_1gCESQ] bind [2]?
**A.** binds
